The text below walks through data of article doi:10.1101/327866 (bioRxiv, 2018).

In test [1] the target is Ara h 3, purified natural peanut allergen (Arachis hypogaea (peanut), cultivar not …, UniProt O82580). The test can be described thus: BLI.
For test [2], the target named is Ara h 2, purified natural peanut allergen (Arachis hypogaea (peanut), cultivar not …, UniProt Q6PSU2). The test can be described thus: BLI.

B1: PA13P1H08 variant: heavy chain reverted to the inferred naive rearrangement, native light chain (antibody, V domains shown)
VH: QVQLVESGGGVVQPGRSLRLSCAASGFTFSSYGMHWVRQAPGKGLEWVAVISYDGSNKYYADSVKGRFTISRDNSKNTLYLQMNSLRAEDTAVYYCAKVLDYSNYYYYYGMDVWGQGTTVTVSS
VL: EIVLTQSPGTLSLSPGGRGTLSCRTSQTINNAHLAWYQHKPGQAPRLLIYGSSERATGVPDRFSGSGSGSDFTLTISSLEAEDFAVYYCQHYGRSPPYTFGPGTKLDIK
As to B1, the binding result in test [1] and in test [2] was “binds” in each case.

B2: PA13P1H08 variant: only the heavy chain CDR2 reverted to the inferred naive rearrangement, native light chain (antibody, V domains shown)
VH: QVQLVNSGGGVVQPGRSLRLSCVASGFTFSTFGIHWVRQAPGKGLEWVAVISYDGSNKESADSVKGRFTPSRDNSKNTVYLQMNNLRVEDTAVYYCAKVLDYSRYSYYYGMDVWGQGTTVIVSS
VL: EIVLTQSPGTLSLSPGGRGTLSCRTSQTINNAHLAWYQHKPGQAPRLLIYGSSERATGVPDRFSGSGSGSDFTLTISSLEAEDFAVYYCQHYGRSPPYTFGPGTKLDIK
Turning to B2, the binding result in test [1] and in test [2] was “binds” each time.

B3: PA13P1H08 variant: only the heavy chain framework regions reverted to the inferred naive rearrangement, native light chain (antibody, V domains shown)
VH: QVQLVESGGGVVQPGRSLRLSCAASGFTFSTFGMHWVRQAPGKGLEWVAVISNDGEKSYYADSVKGRFTISRDNSKNTLYLQMNSLRAEDTAVYYCAKVLDYSRYSYYYGMDVWGQGTTVTVSS
VL: EIVLTQSPGTLSLSPGGRGTLSCRTSQTINNAHLAWYQHKPGQAPRLLIYGSSERATGVPDRFSGSGSGSDFTLTISSLEAEDFAVYYCQHYGRSPPYTFGPGTKLDIK
Regarding B3, the binding result in test [1] and in test [2] was “binds” in each case.

B4: PA13P1H08 variant: only the heavy chain CDR3 reverted to the inferred naive rearrangement, native light chain (antibody, V domains shown)
VH: QVQLVNSGGGVVQPGRSLRLSCVASGFTFSTFGIHWVRQAPGKGLEWVAVISNDGEKSESADSVKGRFTPSRDNSKNTVYLQMNNLRVEDTAVYYCAKVLDYSNYYYYYGMDVWGQGTTVIVSS
VL: EIVLTQSPGTLSLSPGGRGTLSCRTSQTINNAHLAWYQHKPGQAPRLLIYGSSERATGVPDRFSGSGSGSDFTLTISSLEAEDFAVYYCQHYGRSPPYTFGPGTKLDIK
B4: the binding result in test [1] and in test [2] was “binds” throughout.

B5: PA13P1H08 variant: only the heavy chain CDR1 reverted to the inferred naive rearrangement, native light chain (antibody, V domains shown)
VH: QVQLVNSGGGVVQPGRSLRLSCVASGFTFSSYGIHWVRQAPGKGLEWVAVISNDGEKSESADSVKGRFTPSRDNSKNTVYLQMNNLRVEDTAVYYCAKVLDYSRYSYYYGMDVWGQGTTVIVSS
VL: EIVLTQSPGTLSLSPGGRGTLSCRTSQTINNAHLAWYQHKPGQAPRLLIYGSSERATGVPDRFSGSGSGSDFTLTISSLEAEDFAVYYCQHYGRSPPYTFGPGTKLDIK
With B5, the binding result in test [1] and in test [2] was “binds” each time.
